Measurements from patent US20220306765A1 (SUZHOU TRANSCENTA THERAPEUTICS, published 2022).

B1: 7C12-C (antibody, human IgG1, V domains shown)
VH: EFQLQQSGPELEKPGASVRISCKTSGYSFTGYNMNWVKQSNGESLEWIGNIDPYYGATRYNQKFKGKATLTVDKSSSTAYMQLKSLTSEDSAVYYCARSYYGNAFDYWGQGTTLTVSS
VL: DIVMTQSPSSLTVTAGEKVTMSCKSSQSLLNSGNQKNYLTWYQQKPGQPPKLLIYWASTRESGVPDRFTGSGSGTDFTLTISSVQAEDLAVYYCQNDYSFPFTFGSGTKLEIK
notes: also called chimeric 7C12
B2: 7C12 (antibody, V domains shown)
VH: EFQLQQSGPELEKPGASVRISCKTSGYSFTGYNMNWVKQSNGESLEWIGNIDPYYGATRYNQKFKGKATLTVDKSSSTAYMQLKSLTSEDSAVYYCARSYYGNAFDYWGQGTTLTVSS
VL: DIVMTQSPSSLTVTAGEKVTMSCKSSQSLLNSGNQKNYLTWYQQKPGQPPKLLIYWASTRESGVPDRFTGSGSGTDFTLTISSVQAEDLAVYYCQNDYSFPFTFGSGTKLEIK
notes: mouse hybridoma antibody; also called hybridoma antibody 7C12
B3: 59A9 (antibody, V domains shown)
VH: QITQKESGPGILQPSQTLSLTCSLSGFSLSTYFIGVGWIRQPSGKGLEWLAHIWWNDNKYYNTALKSRLTISKDTSNNQVFLKIASVDTADTATYYCARMGSGAWFTYWGQGTLVTVSA
VL: DIVMTQSPSSLTVTAGEKVTMSCKSSQSLLNSGNQKNYLTWYQQKPGQPPKLLIYWASTRESGVPDRFTGSGSGTDFTLTISSVQAEDLAVYYCQNDYYYPLTFGSGTKLEIK
notes: mouse hybridoma antibody; also called hybridoma antibody 59A9
B4: 26G6-C (antibody, human IgG1, V domains shown)
VH: EFQLQQSGPELEKPGASVKISCKTSGYSFTGYNMNWVKQSNGQSLEWIGHIDPYYVTTTYNQKFRGKATLTVDKSSSTAYMQLKSLTSEDSAVYYCARSFYGNAFDYWGQGTTLTVSS
VL: DIVMTQSPSSLTVTAGEKVTMSCKSSQSLFNSGNQKNYLTWYQQKPGQPPKLLIYWASTRESGVPDRFTGSGSGTDFTLTISSVQAEDLAVYYCQNDYSFPFTFGSGTKLEIK
notes: also called chimeric 26G6
B5: 18B10 (antibody, V domains shown)
VH: EFQLQQSGPELEKPGASVRISCKTSGYSFTGYNMNWVKQSNGESLEWIGNIDPYYGGTSYNQKFKGKATLTVDKSSSTAYMQLKSLTSEDSAVYYCARMYHGNAFDYWGQGTTLTVSS
VL: DIVMTQSPSSLTVTAGEKVTMSCKSSQSLLNSGNLKNYLTWYQQKPGQPPKLLIYWASTRKSGVPDRFTGSGSGTDFTLTLSSVQAEDLAVYYCQNDYSYPLTFGAGTKLELK
notes: mouse hybridoma antibody; also called hybridoma antibody 18B10
B6: 12E9-C (antibody, human IgG1, V domains shown)
VH: EFQLQQSGPELEKPGASVRISCKTSGYSFTGYNMNWVKQSNGESLEWIGNIDPYYGGTRYNQKFKGKATLTVDKSSSTAYMQLKSLTSEDSAVYYCARSYYGNAFDYWGQGTTLTVSS
VL: DIVMTQSPSSLTVTAGEKVTMSCKSSQNLLNNGNQKNYLTWYQQKPGQPPKLLIYWASTRESGVPDRFTGSGSGTDFILTISSVQAEDLAVYYCQNDYSFPFTFGAGTKLELK
notes: also called chimeric 12E9
B7: 11F12-C (antibody, human IgG1, V domains shown)
VH: EFQLQQSGPELEKPGASVRISCKTSGYSFTGYNMNWVKQSNGESLEWIGYIDPYYGGTRYNQKFKGKATLTVDKSSSTAYMQLKSLTSEDSAVYYCARSYYGNAFDYWGQGTTLTVSS
VL: DIVMTQSPSSLTVTAGEKVTMSCKSSQSLLNSGNQKNYLTWYQQKPGQPPKLLIYWASTRESGVPDRFTGSGSGTDFTLTISSVQAEDLAVYYCQNDYSYPFTFGSGTKLEIK
notes: also called chimeric 11F12
B8: 18B10-HbLa (antibody, human IgG1, kappa, V domains shown)
VH: QVQLVQSGAEVKKPGASVKVSCKASGYSFTGYNMNWVRQAPGQGLEWMGNIDPYYGGTSYNQKFKGRVTLTIDKSTSTVYMELSSLRSEDTAVYYCARMYHGNAFDYWGQGTTVTVSS
VL: DIVMTQSPDSLAVSLGERATINCKSSQSLLNSGNLKNYLTWYQQKPGQPPKLLIYWASTRKSGVPDRFSGSGSGTDFTLTISSLQAEDVAVYYCQNDYSYPLTFGGGTKVEIKR
notes: humanized 18B10, human IgG1 / kappa
B9: 18B10-HcLb (antibody, human IgG1, kappa, V domains shown)
VH: QVQLVQSGAEVKKPGASVKVSCKASGYSFTGYNMNWVKQAPGQGLEWIGNIDPYYGGTSYNQKFKGRVTLTIDKSTSTVYMELSSLRSEDTAVYYCARMYHGNAFDYWGQGTTVTVSS
VL: DIVMTQSPDSLAVSLGERATMNCKSSQSLLNSGNLKNYLTWYQQKPGQPPKLLIYWASTRKSGVPDRFTGSGSGTDFTLTISSLQAEDVAVYYCQNDYSYPLTFGGGTKVEIKR
notes: as for B8
B10: 18B10-HbLb (antibody, human IgG1, kappa, V domains shown)
VH: QVQLVQSGAEVKKPGASVKVSCKASGYSFTGYNMNWVRQAPGQGLEWMGNIDPYYGGTSYNQKFKGRVTLTIDKSTSTVYMELSSLRSEDTAVYYCARMYHGNAFDYWGQGTTVTVSS
VL: DIVMTQSPDSLAVSLGERATMNCKSSQSLLNSGNLKNYLTWYQQKPGQPPKLLIYWASTRKSGVPDRFTGSGSGTDFTLTISSLQAEDVAVYYCQNDYSYPLTFGGGTKVEIKR
notes: as for B8
B11: 18B10-HcLa (antibody, human IgG1, kappa, V domains shown)
VH: QVQLVQSGAEVKKPGASVKVSCKASGYSFTGYNMNWVKQAPGQGLEWIGNIDPYYGGTSYNQKFKGRVTLTIDKSTSTVYMELSSLRSEDTAVYYCARMYHGNAFDYWGQGTTVTVSS
VL: DIVMTQSPDSLAVSLGERATINCKSSQSLLNSGNLKNYLTWYQQKPGQPPKLLIYWASTRKSGVPDRFSGSGSGTDFTLTISSLQAEDVAVYYCQNDYSYPLTFGGGTKVEIKR
notes: as for B8
B12: 18B10-HaLb (antibody, human IgG1, kappa, V domains shown)
VH: QVQLVQSGAEVKKPGASVKVSCKASGYTFTGYNMNWVRQAPGQGLEWMGNIDPYYGGTSYNQKFKGRVTMTIDKSTSTVYMELSSLRSEDTAVYYCARMYHGNAFDYWGQGTTVTVSS
VL: DIVMTQSPDSLAVSLGERATMNCKSSQSLLNSGNLKNYLTWYQQKPGQPPKLLIYWASTRKSGVPDRFTGSGSGTDFTLTISSLQAEDVAVYYCQNDYSYPLTFGGGTKVEIKR
notes: as for B8

How the values were obtained:
human CLDN18.2-mRFP E56Q = human CLDN18.2-mRFP E56Q (human); assay: FACS, transfected HEK293, 10 µg/ml antibody;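 note: antibody binding read by flow cytometry with a FITC-labelled anti-human IgG secondary, gated on RFP-positive cells, each mutant signal expressed against wild-type CLDN18.2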
Sequence of human CLDN18.2-mRFP E56Q (human) (chain, as listed by the source E56Q E56Q limits assumed): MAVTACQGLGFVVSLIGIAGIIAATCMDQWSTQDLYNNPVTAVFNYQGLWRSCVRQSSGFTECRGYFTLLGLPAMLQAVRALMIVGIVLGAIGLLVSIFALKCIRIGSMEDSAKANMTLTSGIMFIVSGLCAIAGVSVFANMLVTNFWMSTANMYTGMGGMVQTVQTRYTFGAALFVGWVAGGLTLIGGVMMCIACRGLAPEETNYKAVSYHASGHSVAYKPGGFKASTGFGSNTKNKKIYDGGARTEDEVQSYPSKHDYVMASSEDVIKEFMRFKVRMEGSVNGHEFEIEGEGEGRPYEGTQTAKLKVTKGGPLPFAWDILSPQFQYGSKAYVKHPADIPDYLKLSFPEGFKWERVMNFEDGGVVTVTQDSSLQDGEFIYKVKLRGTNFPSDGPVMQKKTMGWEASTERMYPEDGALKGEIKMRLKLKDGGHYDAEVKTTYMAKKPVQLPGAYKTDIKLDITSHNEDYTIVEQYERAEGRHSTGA

human CLDN18.2-mRFP G65P = human CLDN18.2-mRFP G65P (human); assay: FACS, transfected HEK293, 10 µg/ml antibody;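 note: antibody binding read by flow cytometry with a FITC-labelled anti-human IgG secondary, gated on RFP-positive cells, each mutant signal expressed against wild-type CLDN18.2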
Sequence of human CLDN18.2-mRFP G65P (human) (chain, as listed by the source G65P G65P limits assumed): as the sequence (chain, as listed by the source E56Q E56Q limits assumed) above, with Q56E, G65P counted along it

[1] = target: T1, human CLDN18.2-mRFP1, wild-type (human); assay: FACS, transfected HEK293, 10 µg/ml antibody;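 note: antibody binding read by flow cytometry with a FITC-labelled anti-human IgG secondary, gated on RFP-positive cells, each mutant signal expressed against wild-type CLDN18.2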
T1 construct: human CLDN18.2 (amino acid 1-261) fused to mRFP1 (amino acid 1-225), transiently expressed in HEK293 cells; also called wild-type human CLDN18.2-mRFP

human CLDN18.2-mRFP N37D = human CLDN18.2-mRFP N37D (human); assay: FACS, transfected HEK293, 10 µg/ml antibody;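 note: antibody binding read by flow cytometry with a FITC-labelled anti-human IgG secondary, gated on RFP-positive cells, each mutant signal expressed against wild-type CLDN18.2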
Sequence of human CLDN18.2-mRFP N37D (human) (chain, as listed by the source N37D N37D limits assumed): as the sequence (chain, as listed by the source E56Q E56Q limits assumed) above, with N37D, Q56E counted along it

human CLDN18.2-mRFP Q47E = human CLDN18.2-mRFP Q47E (human); assay: FACS, transfected HEK293, 10 µg/ml antibody
Sequence of human CLDN18.2-mRFP Q47E (human) (chain, as listed by the source Q47E Q47E limits assumed): as the sequence (chain, as listed by the source E56Q E56Q limits assumed) above, with Q47E, Q56E counted along it

human CLDN18.2-mRFP L69I = human CLDN18.2-mRFP L69I (human); assay: FACS, transfected HEK293, 10 µg/ml antibody
Sequence of human CLDN18.2-mRFP L69I (human) (chain, as listed by the source L69I L69I limits assumed): as the sequence (chain, as listed by the source E56Q E56Q limits assumed) above, with Q56E, L69I counted along it

human CLDN18.2-mRFP A42S = human CLDN18.2-mRFP A42S (human); assay: FACS, transfected HEK293, 10 µg/ml antibody
Sequence of human CLDN18.2-mRFP A42S (human) (chain, as listed by the source A42S A42S limits assumed): as the sequence (chain, as listed by the source E56Q E56Q limits assumed) above, with A42S, Q56E counted along it

human CLDN18.2-mRFP N45Q = human CLDN18.2-mRFP N45Q (human); assay: FACS, transfected HEK293, 10 µg/ml antibody
Sequence of human CLDN18.2-mRFP N45Q (human) (chain, as listed by the source N45Q N45Q limits assumed): as the sequence (chain, as listed by the source E56Q E56Q limits assumed) above, with N45Q, Q56E counted along it

human CLDN18.2-mRFP Q29M = human CLDN18.2-mRFP Q29M (human); assay: FACS, transfected HEK293, 10 µg/ml antibody
Sequence of human CLDN18.2-mRFP Q29M (human) (chain, as listed by the source Q29M Q29M limits assumed): as the sequence (chain, as listed by the source E56Q E56Q limits assumed) above, with Q29M, Q56E counted along it

human CLDN18.1 [2] = target: T2, human CLDN18.1 (human, UniProt P56856 1-261); assay: FACS, HEK293-CLDN18.1 cells
T2 construct: on HEK293-CLDN18.1 cells; also called Claudin-18 splice variant 1; NP_057453.1
T2 sequence (P56856 whole entry, canonical isoform): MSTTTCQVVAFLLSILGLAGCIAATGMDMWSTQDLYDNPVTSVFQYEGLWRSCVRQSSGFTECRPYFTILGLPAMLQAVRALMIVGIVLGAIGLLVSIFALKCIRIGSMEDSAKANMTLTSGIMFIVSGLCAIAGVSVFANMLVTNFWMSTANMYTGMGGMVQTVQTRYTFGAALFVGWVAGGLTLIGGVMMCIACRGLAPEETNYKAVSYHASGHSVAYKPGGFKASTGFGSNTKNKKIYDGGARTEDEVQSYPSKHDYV

human CLDN18.2 [3] = target: T3, human CLDN18.2 (human); assay: FACS, HEK293-CLDN18.2 cells
T3 construct: also called hCLDN18.2; Claudin-18 splice variant 2

human CLDN18.2 [4] = target: T3, human CLDN18.2; assay: FACS, NUGC4 cells
human CLDN18.2 [5] = target: T3, human CLDN18.2; assay: flow cytometry on HEK293-CLDN18.2 cells, goat anti-mIgG-FITC; unit taken from the concentration axis
Procedure: (§1) Log-phase HEK293-CLDN18.2 and NUGC4 cells were re-suspended in PBS. After 3× cell wash by using FACS washing buffer (PBS+2% FBS), 100 μl/well diluted hybridoma Abs with a range from 400 nM to 0.002 nM were added into each well for incubation at 4° C. for 30 min. Again, cells were washed 3 times by using FACS washing buffer and then incubated with 100 μl/well goat anti-mIgG-FITC (1:400 dilution) at 4° C. for another 30 min. After a final 3× wash using FACS washing buffer, cells were analyzed by flow Cytometry.

human CLDN18.2 [6] = target: T3, human CLDN18.2; assay: flow cytometry on NUGC4 cells, goat anti-mIgG-FITC
Procedure: as §1

human CLDN18.1 [7] = target: T2, human CLDN18.1; assay: FACS, hybridoma supernatant, HEK293-CLDN18.1 cells
Procedure: Log-phase CLDN18.1 expressing HEK293-CLDN18.1 cells were resuspended in PBS at a density of 10\hat{ }5/100 μl per well. After 3× cell wash by using FACS washing buffer (PBS+2% FBS), 100 μl/well hybridoma supernatant was added into each well for incubation at 4° C. for 30 min. Again, cells were washed 3 times by using FACS washing buffer and then incubated with 100 μl/well goat anti-mIgG-FITC (1:400 dilution) at 4° C. for another 30 min. After a final 3× wash using FACS washing buffer, cells were analyzed by flow Cytometry.

human CLDN18.2 [8] = target: T3, human CLDN18.2; assay: FACS, HEK293-CLDN18.2 cells; remark: listed apart in the source
Procedure: as §1

human CLDN18.2 [9] = target: T3, human CLDN18.2; assay: flow cytometry on HEK293-CLDN18.2 cells; unit taken from the concentration axis
Procedure: as §1

Binder | binding percentage vs wild-type CLDN18.2 (human CLDN18.2-mRFP E56Q) | binding percentage vs wild-type CLDN18.2 (human CLDN18.2-mRFP G65P) | binding percentage vs wild-type CLDN18.2 [1] | binding percentage vs wild-type CLDN18.2 (human CLDN18.2-mRFP N37D) | binding percentage vs wild-type CLDN18.2 (human CLDN18.2-mRFP Q47E) | binding percentage vs wild-type CLDN18.2 (human CLDN18.2-mRFP L69I) | binding percentage vs wild-type CLDN18.2 (human CLDN18.2-mRFP A42S) | binding percentage vs wild-type CLDN18.2 (human CLDN18.2-mRFP N45Q) | binding percentage vs wild-type CLDN18.2 (human CLDN18.2-mRFP Q29M) | binding result (human CLDN18.1 [2]) | EC50 (human CLDN18.2 [3]) | EC50 (human CLDN18.2 [4]) | EC50 (human CLDN18.2 [9]) | other results
B1 | 0.48% | 79.4% | 100% | 80.2% | 74.7% | 90.4% | 38.7% | 52.1% | 83.5% | no binding | 0.63 µg/mL | 13 µg/mL |  | 
B2 |  |  |  |  |  |  |  |  |  |  |  |  |  | EC50 (human CLDN18.2 [5]): 0.417 µg/mL; EC50 (read off the curve) (human CLDN18.2 [6]): ~0.5 µg/mL; binding result (human CLDN18.1 [7]): no binding; EC50 (human CLDN18.2 [8]): 1.08 µg/mL
B3 |  |  |  |  |  |  |  |  |  |  |  |  |  | binding result (human CLDN18.1 [7]): no binding; EC50 (human CLDN18.2 [8]): 0.51 µg/mL
B4 | 0.34% | 119% | 100% | 118% | 116% | 79.7% | 82.2% | 88.7% | 107% | no binding | 1.1 µg/mL | 67.1 µg/mL |  | 
B5 |  |  |  |  |  |  |  |  |  |  |  |  |  | binding result (human CLDN18.1 [7]): no binding; EC50 (human CLDN18.2 [8]): 0.81 µg/mL
B6 | 0.35% | 96.7% | 100% | 103% | 89.1% | 58.1% | 55.1% | 50.8% | 106% | no binding | 0.65 µg/mL | 9.37 µg/mL |  | 
B7 | 0.27% | 92.7% | 100% | 102% | 86.1% | 74.3% | 56.9% | 57.4% | 108% | no binding | 0.61 µg/mL | 10 µg/mL |  | 
B8 |  |  |  |  |  |  |  |  |  |  |  |  | 1.31 µg/mL | 
B9 |  |  |  |  |  |  |  |  |  |  |  |  | 1.22 µg/mL | 
B10 |  |  |  |  |  |  |  |  |  |  |  |  | 1.2 µg/mL | 
B11 |  |  |  |  |  |  |  |  |  |  |  |  | 1.39 µg/mL | 
B12 |  |  |  |  |  |  |  |  |  |  |  |  | 1.27 µg/mL | 
